Assay results reported in IntAct's records for PubMed 15895076.

B1: Focal adhesion kinase 1 (Homo sapiens), Q05397 (parent)
chain: MAAAYLDPNLNHTPNSSTKTHLGTGMERSPGAMERVLKVFHYFESNSEPTTWASIIRHGDATDVRGIIQKIVDSHKVKHVACYGFRLSHLRSEEVHWLHVDMGVSSVREKYELAHPPEEWKYELRIRYLPKGFLNQFTEDKPTLNFFYQQVKSDYMLEIADQVDQEIALKLGCLEIRRSYWEMRGNALEKKSNYEVLEKDVGLKRFFPKSLLDSVKAKTLRKLIQQTFRQFANLNREESILKFFEILSPVYRFDKECFKCALGSSWIISVELAIGPEEGISYLTDKGCNPTHLADFTQVQTIQYSNSEDKDRKGMLQLKIAGAPEPLTVTAPSLTIAENMADLIDGYCRLVNGTSQSFIIRPQKEGERALPSIPKLANSEKQGMRTHAVSVSETDDYAEIIDEEDTYTMPSTRDYEIQRERIELGRCIGEGQFGDVHQGIYMSPENPALAVAIKTCKNCTSDSVREKFLQEALTMRQFDHPHIVKLIGVITENPVWIIMELCTLGELRSFLQVRKYSLDLASLILYAYQLSTALAYLESKRFVHRDIAARNVLVSSNDCVKLGDFGLSRYMEDSTYYKASKGKLPIKWMAPESINFRRFTSASDVWMFGVCMWEILMHGVKPFQGVKNNDVIGRIENGERLPMPPNCPPTLYSLMTKCWAYDPSRRPRFTELKAQLSTILEEEKAQQEERMRMESRRQATVSWDSGGSDEAPPKPSRPGYPSPRSSEGFYPSPQHMVQTNHYQVSGYPGSHGITAMAGSIYPGQASLLDQTDSWNHRPQEIAMWQPNVEDSTVLDLRGIGQVLPTHLMEERLIRQQQEMEEDQRWLEKEERFLKPDVRLSRGSIDREDGSLQGPIGNQHIYQPVGKPDPAAPPKKPPRPGAPGHLGSLASLSSPADSYNEGVKLQPQEISPPPTANLDRSNDKVYENVTGLVKAVIEMSSKIQPAPPEEYVPMVKEVGLALRTLLATVDETIPLLPASTHREIEMAQKLLNSDLGELINKMKLAQQYVMTSLQQEYKKQMLTAAHALAVDAKNLLDVIDQARLKMLGQTRPH
partner: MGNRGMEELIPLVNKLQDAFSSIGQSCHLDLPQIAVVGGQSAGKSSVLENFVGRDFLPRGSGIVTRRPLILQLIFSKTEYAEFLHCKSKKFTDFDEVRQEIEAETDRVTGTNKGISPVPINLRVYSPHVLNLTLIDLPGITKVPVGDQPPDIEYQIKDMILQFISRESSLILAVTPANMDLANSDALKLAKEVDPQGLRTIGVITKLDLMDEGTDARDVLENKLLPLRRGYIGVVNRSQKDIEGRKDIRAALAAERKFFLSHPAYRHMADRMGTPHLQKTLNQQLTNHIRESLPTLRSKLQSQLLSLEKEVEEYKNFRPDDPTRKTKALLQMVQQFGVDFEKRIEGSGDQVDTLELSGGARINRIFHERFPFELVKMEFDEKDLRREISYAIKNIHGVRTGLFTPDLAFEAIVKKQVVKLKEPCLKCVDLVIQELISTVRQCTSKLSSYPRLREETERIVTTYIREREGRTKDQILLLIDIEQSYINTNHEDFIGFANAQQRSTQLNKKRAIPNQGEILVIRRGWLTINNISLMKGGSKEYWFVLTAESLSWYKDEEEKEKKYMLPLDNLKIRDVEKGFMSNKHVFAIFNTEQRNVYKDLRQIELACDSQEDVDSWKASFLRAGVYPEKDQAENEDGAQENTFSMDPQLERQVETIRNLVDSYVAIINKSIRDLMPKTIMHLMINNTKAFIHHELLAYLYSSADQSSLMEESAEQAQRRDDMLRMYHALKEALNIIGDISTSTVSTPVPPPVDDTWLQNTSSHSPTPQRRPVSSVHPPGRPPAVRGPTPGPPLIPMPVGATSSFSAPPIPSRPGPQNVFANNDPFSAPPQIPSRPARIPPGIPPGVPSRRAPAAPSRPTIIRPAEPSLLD
B2: Dynamin-2 (Rattus norvegicus (Rat)), P39052 (parent)
chain: B1 partner

Variants of: B1
Details: with dyn2_rat Dnm2, P39052

Row | effect of a mutation on the interaction | Variant
1 | disrupting interaction | Y925F

Variants of: B2
Details: with fak1_mouse Ptk2, P34152

Row | effect of a mutation on the interaction | Variant
2 | increasing interaction | K44E
